Measured values taken from the supplement of paper PMC10126150.
± gives the standard deviation of the averaged measurements.

Test system: ATP
Assay: switch fluorescence ratio, 500 uM ATP over buffer (Cy3 cluster intensity, sum of 5 cycles each) (fold (ratio)); higher = stronger signal-on switching upon ATP binding; sequences stand for … in TCGTCGGCAGCGTCAGATGTGTATAAGAGACAGTTTTTTTTTTTTTTTTTTTTTTTTT…TC
Conditions: aptamer strand: ATP DNA aptamer (quencher-CACCTGGGGGAGTATTGCGGAGGAAGG + anchor), 100 nM annealed; ATP concentration: 500 uM
Summary of the method: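 Clusters with intensities outside 100-1000 RFU were excluded. The remaining Cy3-labelled switching-strand clusters on a modified Illumina MiSeq flow-cell had been annealed to 100 nM quencher-labelled ATP aptamer and imaged in selection buffer, then after 15 min with 500 uM ATP at 22 °C, for five cycles separated by NaOH stripping and re-annealing. The fluorescence ratio, averaged per switch-domain sequence, is each cluster's summed target-cycle Cy3 intensity over its summed buffer-cycle Cy3 intensity.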
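Also: ATP exposure 15 min at 22 °C before imaging.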

Row | Sequence | switch fluorescence ratio
1 | ATCGAAAAAC | 1.01 ± 0.05
2 | ATCGAAGGGA | 0.985 ± 0.041
3 | ATCGAATATT | 0.983 ± 0.031
4 | ATCGAGCATG | 1.03 ± 0.051
5 | ATCGAGTAGG | 1.008 ± 0.005
6 | ATCGATGAAT | 0.995 ± 0.015
7 | ATCGATTATC | 0.988 ± 0.021
8 | ATCGATTGAT | 1.02 ± 0.011
9 | ATCGATTTTA | 0.978 ± 0.056
10 | ATCGCATGGG | 1.03 ± 0.013
11 | ATCGCGGGCA | 1.02 ± 0.027
12 | ATCGCGGGGG | 1.009 ± 0.0021
13 | ATCGCGGTGC | 1.64 ± 0.33
14 | ATCGCTATGG | 1.125 ± 0.0017
15 | ATCGCTGGTA | 1.02 ± 0.031
16 | ATCGGAAAGC | 1.07 ± 0.028
17 | ATCGGAATTG | 1.01 ± 0.015
18 | ATCGGAGACA | 0.9681 ± 0.0067
19 | ATCGGAGGCA | 1.0107 ± 0.00084
20 | ATCGGCAGGC | 1.22 ± 0.075
21 | ATCGGCGGGG | 0.995 ± 0.031
22 | ATCGGGACGA | 0.955 ± 0.0099
23 | ATCGGGCGGG | 1.02 ± 0.02
24 | ATCGGGCTGC | 1 ± 0.038
25 | ATCGGGGAGG | 1.01 ± 0.0081
26 | ATCGGGGCAT | 0.98 ± 0.059

Row | Sequence | switch fluorescence ratio
27 | ATCGGGGGAA | 1.05 ± 0.062
28 | ATCGGGTAAG | 1.01 ± 0.024
29 | ATCGGGTCCA | 0.979 ± 0.028
30 | ATCGGTGGGA | 0.992 ± 0.0031
31 | ATCGGTGTTG | 1.02 ± 0.035
32 | ATCGGTTTTG | 1.01 ± 0.021
33 | ATCGTACATA | 1.12 ± 0.064
34 | ATCGTATTAC | 1.46 ± 0.041
35 | ATCGTCCCTT | 0.986 ± 0.022
36 | ATCGTCGGGA | 0.977 ± 0.02
37 | ATCGTGCCGT | 1.01 ± 0.041
38 | ATCGTGGGTG | 0.984 ± 0.015
39 | ATCGTGTGAG | 1.02 ± 0.015
40 | ATCTAAAGTT | 1.023 ± 0.0016
41 | ATCTAACCGA | 1.06 ± 0.026
42 | ATCTAGGGTT | 0.995 ± 0.022
43 | ATCTATGGTT | 0.9669 ± 0.0036
44 | ATCTCAGTGT | 0.971 ± 0.04
45 | ATCTCGGTTG | 1.019 ± 0.0085
46 | ATCTCTCATA | 1.01 ± 0.038
47 | ATCTCTGAAG | 0.995 ± 0.013
48 | ATCTGGACTA | 0.984 ± 0.033
49 | ATCTGGATGG | 0.996 ± 0.03
50 | ATCTGGGGTA | 0.972 ± 0.034
51 | ATCTGTATCC | 1.05 ± 0.04
52 | ATCTGTGGTT | 0.978 ± 0.023

Row | Sequence | switch fluorescence ratio
53 | ATCTTAGTTT | 1 ± 0.025
54 | ATCTTCAGGT | 0.995 ± 0.0013
55 | ATCTTCTAAG | 1.02 ± 0.03
56 | ATCTTCTTAG | 0.977 ± 0.051
57 | ATCTTTAAGT | 0.993 ± 0.015
58 | ATCTTTGGTG | 1.03 ± 0.022
59 | ATCTTTGTGT | 1.01 ± 0.043
60 | ATGAAAAGGG | 1 ± 0.022
61 | ATGAAAAGGT | 0.976 ± 0.013
62 | ATGAAAATCA | 1.01 ± 0.019
63 | ATGAAAATCC | 1.03 ± 0.021
64 | ATGAAAGGTT | 0.975 ± 0.021
65 | ATGAAATAGG | 0.98 ± 0.031
66 | ATGAAGAGCG | 0.994 ± 0.015
67 | ATGAAGAGGG | 0.997 ± 0.045
68 | ATGAAGTAAT | 1 ± 0.023
69 | ATGAAGTGAA | 1 ± 0.034
70 | ATGAATAAGG | 0.983 ± 0.028
71 | ATGAATATGC | 1.04 ± 0.043
72 | ATGAATGGGG | 1.01 ± 0.072
73 | ATGAATTGGT | 1.01 ± 0.019
74 | ATGAGACGTG | 1.04 ± 0.037
75 | ATGAGCATCT | 0.996 ± 0.01
76 | ATGAGGACCC | 0.982 ± 0.022
77 | ATGAGGAGGT | 0.979 ± 0.0036
78 | ATGAGGGGCT | 0.986 ± 0.037

Row | Sequence | switch fluorescence ratio
79 | ATGAGGGGTT | 0.995 ± 0.032
80 | ATGAGGGTAG | 1.02 ± 0.034
81 | ATGAGGGTTC | 0.981 ± 0.044
82 | ATGAGGTGCG | 0.972 ± 0.035
83 | ATGAGGTGCT | 1.02 ± 0.032
84 | ATGAGGTTAG | 0.947 ± 0.065
85 | ATGAGTATTT | 0.979 ± 0.046
86 | ATGAGTGCCA | 0.9844 ± 0.0013
87 | ATGAGTTGGG | 0.999 ± 0.024
88 | ATGAGTTGTA | 1.01 ± 0.012
89 | ATGAGTTGTG | 1 ± 0.017
90 | ATGATAAGTA | 1.006 ± 0.0034
91 | ATGATAGTAA | 1.009 ± 0.0027
92 | ATGATAGTCG | 0.993 ± 0.013
93 | ATGATATGGG | 0.985 ± 0.026
94 | ATGATCAGGG | 1.009 ± 0.01
95 | ATGATCTCGT | 0.968 ± 0.032
96 | ATGATGAATG | 0.975 ± 0.054
97 | ATGATGGAAG | 0.982 ± 0.015
98 | ATGATGGACG | 1.03 ± 0.062
99 | ATGATGGCAA | 1.03 ± 0.027
100 | ATGATGGCTT | 1.006 ± 0.0027
101 | ATGATGGGCC | 1 ± 0.041
102 | ATGATGGGGC | 0.9536 ± 0.0011
103 | ATGATGTGGG | 1.011 ± 0.0087
104 | ATGATTACGA | 1.03 ± 0.026

Row | Sequence | switch fluorescence ratio
105 | ATGATTATGA | 1.04 ± 0.029
106 | ATGATTTATT | 1 ± 0.011
107 | ATGATTTCTA | 0.986 ± 0.024
108 | ATGCAAGGCA | 1.02 ± 0.04
109 | ATGCAATCTT | 1.11 ± 0.06
110 | ATGCACTGGA | 0.9969 ± 0.0075
111 | ATGCAGACGA | 1.1 ± 0.013
112 | ATGCAGGAGT | 0.98647 ± 0.00087
113 | ATGCAGTATG | 0.967 ± 0.025
114 | ATGCATAGGC | 0.983 ± 0.011
115 | ATGCATGGAC | 1.11 ± 0.12
116 | ATGCATGGTA | 1.03 ± 0.009
117 | ATGCATTATG | 1.02 ± 0.016
118 | ATGCCAAAAG | 1.01 ± 0.042
119 | ATGCCAGGGA | 1.01 ± 0.023
120 | ATGCCAGGGT | 0.998 ± 0.031
121 | ATGCCCGGGC | 0.988 ± 0.017
122 | ATGCCGGTGT | 0.996 ± 0.057
123 | ATGCCTGGGC | 1.03 ± 0.057
124 | ATGCGAAACC | 1.02 ± 0.051
125 | ATGCGACGCT | 1.091 ± 0.0038
126 | ATGCGCGGTA | 1.01 ± 0.068
127 | ATGCGGGGGG | 1.01 ± 0.021
128 | ATGCGGGGTT | 1.02 ± 0.05
129 | ATGCGGGTG | 1.04 ± 0.061
130 | ATGCGTGACA | 1.02 ± 0.036

Row | Sequence | switch fluorescence ratio
131 | ATGCTACCGT | 1.03 ± 0.049
132 | ATGCTACCTT | 1.1 ± 0.048
133 | ATGCTATTGT | 1.03 ± 0.046
134 | ATGCTCGCGG | 0.983 ± 0.038
135 | ATGCTGCGGG | 1.06 ± 0.068
136 | ATGCTGGGAC | 1.01 ± 0.024
137 | ATGCTGGGGG | 0.994 ± 0.013
138 | ATGCTGTTGC | 0.9631 ± 0.0065
139 | ATGGAAAATT | 1.04 ± 0.02
140 | ATGGAAGGGT | 0.988 ± 0.052
141 | ATGGAAGTTA | 1.011 ± 0.0057
142 | ATGGAATGGG | 0.959 ± 0.01
143 | ATGGAATTTG | 0.98 ± 0.0098
144 | ATGGACTATC | 1.03 ± 0.046
145 | ATGGACTGAA | 0.992 ± 0.013
146 | ATGGAGACGG | 0.979 ± 0.019
147 | ATGGAGCTAC | 4.67 ± 1.3
148 | ATGGAGGTTG | 1.03 ± 0.022
149 | ATGGAGTAAC | 0.987 ± 0.011
150 | ATGGATGCCT | 1.01 ± 0.051
151 | ATGGATGGGC | 1.04 ± 0.057
152 | ATGGCAGTGT | 0.993 ± 0.018
153 | ATGGCGAGGT | 1.01 ± 0.059
